According to paper PMC8198134, “Structural Basis for the Diminished Ligand Binding and Catalytic Ability of Human Fetal-Specific CYP3A7” (International Journal of Molecular Sciences, 2021):

Substrate: O=c1cc(C(F)(F)F)c2ccc(OCc3ccccc3)cc2o1
Assay: purified protein
Type: biochemical, Homo sapiens
Conditions: heme

B1: CYP3A7mut (Homo sapiens; C77G/K244E/K421A/K422A/K424A/R69G) (protein)
chain: YLYGTRTHGLFKKLGIPGPTPLPFLGNALSFRKGYWTFDMECYKKYGKVWGIYDGQQPMLAITDPDMIKTVLVKECYSVFTNRRPFGPVGFMKNAISIAEDEEWKRIRSLLSPTFTSGKLKEMVPIIAQYGDVLVRNLRREAETGKPVTLKHVFGAYSMDVITSTSFGVSIDSLNNPQDPFVENTKKLLRFNPLDPFVLSIKVFPFLTPILEALNITVFPREVISFLTKSVKQIKEGRLKETQKHRVDFLQLMIDSQNSKDSETHKALSDLELMAQSIIFIFAGYETTSSVLSFIIYELATHPDVQQKVQKEIDTVLPNKAPPTYDTVLQLEYLDMVVNETLRLFPVAMRLERVCKKDVEINGMFIPKGVVVMIPSYVLHHDPKYWTEPEKFLPERFSAANADNIDPYIYTPFGSGPRNCIGMRFALVNMKLALVRVLQNFSFKPCKETQIPLKLRFGGLLLTEKPIVLKAESRDETVSGA
notes: Δ3-22 (lacking the membrane tether, residues 3-22), C-terminal 4-histidine tag
Which results are given for B1?
Km: 11 ± 1 µM; kcat: 0.000567 ± 8.33e-05 s⁻¹; kcat/Km: 51.7 M⁻¹ s⁻¹
